Sequences and labels used below:
B1: COVA1-07 (antibody, V domains shown)
VH: QVQLVESGAEVKKPGSSVKVSCKASGGTLSSYAITWVRQAPGQGLEWVGGIIPIFGTANYAQKFQGRVTITADESTSTAYMELSSLRSEDTAVYYCARVGAYDSSGYSNDYWGQGTLVTVSS
VL: DIQLTQSPATLSLSPGERATLSCRASQSVSSYLAWYQQKPGQAPRLLIYDASNRATGIPARFSGSGSGTDFTLTISSLEPEDFAVYYCQQRSNWPPRVTFGGGTKVEIK
notes: copies: 2 + 2
B2: COVA2-14 (antibody, V domains shown)
VH: B1 VH with E6Q, L29F, T35I, V48M, A72T, G100R, A101Y, S108Y, N109E
VL: B1 VL with D1E, Q3V, K39E, R97M, V98Y, G102Q
notes: copies: 2 + 2
B3: COVA2-18 (antibody, V domains shown)
VH: EVQLVQSGAEVKKPGSSVKVSCKASGGTFSSYAISWVRQAPGQGLEWMGGIIPIFGTTNYAQKFQGRVTITTDESTSTAYMELSSLRSEDTAVYYCARVYSYDSSGYYLEYWGQGTRVTVSS
VL: B1 VL with D1E, Q3V, R97S, V98I, G102Q, K105R, V106L
notes: copies: 2 + 2

Substitutions are numbered along the chain they refer to.

The source of these data is article PMC9352689 (Nature Communications, 2022).

In one experiment the target is SARS-CoV-2 soluble S2, his-tagged (SARS-CoV-2, ancestral (Wuhan-Hu-1), UniProt P0DTC2). The experiment can be described thus: ELISA; COVA MAbs on SARS-CoV-2 S and on soluble S2 (Fig. S5A); format not told. The conditions noted are these: both partners purified. In general terms: In an ELISA, binding on a coated surface is turned into a signal by an enzyme label.
As for B1, the binding result is recorded as “binds”.
The same measure, in the same setting: then B2, with “binds”.
Regarding B3, the binding result is recorded as “binds”.

The target in a further experiment is SARS-CoV S, full-length, on the cell surface (SARS-CoV, strain , UniProt P59594). The experiment can be described thus: flow cytometry on cells. The conditions noted are these: one partner purified. In general terms: In flow cytometry, cells or beads pass a laser one at a time.
On to B1, for which the binding result is “binds”.
Still for that read-out and setting: then B2, with “binds”.
For B3, the binding result was “binds”.

The target in another experiment is HCoV-OC43 S, full-length, on the cell surface (HCoV-OC43, strain , UniProt P36334). The experiment can be described thus: flow cytometry on cells. The following applies: one partner purified.
As for B1, the binding result is listed as “no binding (tested: 50 μg/mL)”.
Same read-out and setting: for B2 the value was “no binding (tested: 50 μg/mL)”; for B3, “no binding (tested: 50 μg/mL)”.

Another experiment has as its target HCoV-NL63 S, full-length, on the cell surface (HCoV-NL63, strain , UniProt Q6Q1S2). The experiment can be described thus: flow cytometry on cells. The conditions noted are these: one partner purified.
B1: the binding result is on record as “no binding (tested: 50 μg/mL)”.
With B2, the binding result is given as “no binding (tested: 50 μg/mL)”.
On to B3, for which the binding result was “no binding (tested: 50 μg/mL)”.

Another experiment addresses HCoV-229E S, full-length, on the cell surface (HCoV-229E, strain , UniProt P15423). The experiment can be described thus: flow cytometry on cells. The following applies: one partner purified.
As to B1, the binding result is given as “no binding (tested: 50 μg/mL)”.
Same read-out and setting: then B2, with “no binding (tested: 50 μg/mL)”.
The same measure, in the same setting: then B3, with “no binding (tested: 50 μg/mL)”.

A further experiment addresses HCoV-HKU1 S, full-length, on the cell surface (HCoV-HKU1, isolate  (entry: …, UniProt Q5MQD0)). Put plainly: flow cytometry on cells. The conditions noted are these: one partner purified.
Take B1: the binding result was “no binding (tested: 50 μg/mL)”.
On the same count and under the same terms, for B2 the value was “no binding (tested: 50 μg/mL)”; for B3, “no binding (tested: 50 μg/mL)”.

A further experiment has as its target MERS-CoV S, full-length, on the cell surface (MERS-CoV, strain , UniProt K9N5Q8). Put plainly: flow cytometry on cells. The conditions noted are these: one partner purified.
Turning to B1, the binding result is listed as “no binding (tested: 50 μg/mL)”.
Still for that read-out and setting: then B2, with “no binding (tested: 50 μg/mL)”.
Still for that read-out and setting: then B3, with “no binding (tested: 50 μg/mL)”.

A further experiment has as its target T1, SARS-CoV-2 S, full-length wild type, expressed on the cell surface (SARS-CoV-2, labelled B.1 in Fig. S6A, UniProt P0DTC2).
T1 construct: source: HEK293T, transfected, on the cell surface
The experiment can be described thus: flow cytometry on cells. The conditions noted are these: one partner purified.
Take B1: the binding result is on record as “binds”.
Same read-out and setting: then B2, with “binds”; and B3, with “binds”.

The next experiment has as its target bat CoV SHC014 S, full-length, on the cell surface (Bat SARS-like coronavirus RsSHC014, UniProt U5WLK5). Put plainly: flow cytometry on cells. The following applies: one partner purified.
In the case of B1, the binding result is on record as “binds”.
Take B2: the binding result is given as “binds”.
Same read-out and setting: for B3 the value was “binds”.
